Assay results reported in patent US20240101708A1 (Genentech, published 2024).
Positions count from the first letter of the chain named.

T1: recombinant human ZNRF3 extracellular domain (human, UniProt Q9ULT6 56-219)
T1 construct: extracellular domain; also called huZNRF3; human ZNRF3 ECD
T1 sequence (looked up): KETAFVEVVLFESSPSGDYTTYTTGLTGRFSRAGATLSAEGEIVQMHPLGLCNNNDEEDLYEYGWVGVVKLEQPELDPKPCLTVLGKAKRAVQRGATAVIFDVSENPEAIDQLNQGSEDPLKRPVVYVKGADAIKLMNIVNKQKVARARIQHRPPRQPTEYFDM

T2: recombinant human RNF43 extracellular domain (human) (UniProt Q68DV7)
T2 sequence (looked up): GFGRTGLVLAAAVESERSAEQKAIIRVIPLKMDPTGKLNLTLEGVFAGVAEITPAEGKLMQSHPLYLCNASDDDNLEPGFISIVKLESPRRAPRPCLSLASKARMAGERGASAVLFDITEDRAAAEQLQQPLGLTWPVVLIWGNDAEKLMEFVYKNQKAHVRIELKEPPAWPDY

B1: ZNRF3-332 (antibody, V domains shown)
VH: QSLEESGGGLVQPEGSLTLTCTASGIDFSTRNYMCWVRQAPGKGLEWVGCIYTSSGGTYYASWVNGRFTISKTSSTTVTLRMTSLTAADTATYFCARGGYVGYGYATYFNLWGPGTLVAVSS
VL: DVVMTQTPASVSEPVGGTVTIKCQASQSISSYLSWYQQKPGQPPKLLIYYVSNLESGVPSRFKGSGSGTEFTLTISDLECADAATYYCQNYYSSSSGWAFGGGTEVVVK
notes: Rabbit clone; VH/VL only
B2: RNF43-19 (antibody, V domains shown)
VH: QQQLEESGGGLVKPGGTLTLTCKASGIDFSTYYYMCWVRQAPGKGLEWIACIYTGDGNTYYASWAKGRFTISKTSSTTVTLQMTSLTAADTATYFCARDLAGSSYYSGYYFKLWGPGTLVTVSS
VL: DVVMTQTPASVSEPVGGTVTIKCQASQSIGSNLAWYQQKPGQPPKLLIYSVSNLASGVSSRFKGSRSGTEYTLTISDLECADAATYYSQSGYYGSTYAFGGGTEVVVK
B3: ZNRF3-237 (antibody, V domains shown)
VH: QIQLVQSGPELKKPGESVKISCKASGYTFTDYAMHWVKQVPGKGLKWMGWINTYTGKPTYADDFKGRFVFSLEASASTVNLQISNLKNEDTANVFCARGGLLSRGWFAYWGQGTLVTVSS
VL: DIVMTQTPVSLSVSLGGQVSISCRSSQSFVHSDGNSYLSWYLQKPGQSPQLLIYEVSNRLSGVPDRFSGSGSGTDFTLKISRVEHDDLGVYYCGQASKIPLTFGSGTKLEIK
notes: Rat clone; VH/VL only
B4: ZNRF3-222 (antibody, V domains shown)
VH: EVQLVESGGGLVQPGRSLKLSCAVSGFTFSNYGMAWVRQTPTKGLEWVATITYDGSTTYYRDSVKGRFTISRDNAKSALSLQMDSLRSEDTATYHCARQGLGYPFVYWGQGTLVTVSS
VL: DVVMTQTPVSLPVSLGGQASISCRTSQSLVHSNGNTYLHWYLQKPGQSPQLLIYRVSNRFSGVPDRFSGSGSGTDFTLKISRIEPEDLGDYYCLQSTHFPYTFGAGTKLELK
notes: Rat clone; VH/VL only
B5: ZNRF3-322 (antibody, V domains shown)
VH: EVHLVESGGGLVQPGRSLTLSCVASGFTFNNWWMTWIRQAPGKGLEWVASISHTGGSTSYPDSVKGRFTISRDNAKSTLYLQMTSLRSDDTATYYCTRWGPILRGFDYWGQGVMVTVSS
VL: DVVLTQTPPTLSATIGQSVSISCRSSQSLLHINGNTYVNWLVQRPGQPPQLLFYLVSRLESGVPNRFSGSGSGTDFTLKISGVEAEDLGVYYCVQSTHAPPTFGGGTKLELK
notes: Rat clone; VH/VL only
B6: ZNRF3-331 (antibody, V domains shown)
VH: QSVEESGGRLVTPGTPLTLTCTVSGFSLSSYAMGWVRQAPGKGLEWIGIIYAGDTTYYASWAKGRFTISETSTTVDLKITSPTTEDTATYFCARKSDDDSDSYLLWGPGTLVTVSS
VL: AYDMTQTPASVEVAVGGTVTIKCQASQSISSYLNWYQQKRGQPPKLLIYDASTLASGVPSRFSGSGSGTEFTLTISGVQCDDAATYYCQQGWSSTNIDNIFGGGTEVVVK
notes: Rabbit clone; VH/VL only
B7: ZNRF3-223 (antibody, V domains shown)
VH: EVQLVESGGGLVQPGESLKLSCSASGFTFSNYGMHWIRQVPGKGLDWVAYITNSGGSLYAAAVKGRFTISRDNAKNTLYLELTSLKSEDTAIYHCARGYSYPGPYWGRGTLVTVSS
VL: DIQVTQSPSSLLASLGERVTITCQTGQSINNYLNWYQQRPGQAPLLLIYFATSLQTGVPSRFSGQYSGRSFTLTITSLEPEDIANYFCLQHYSPPYTFGAGTKLELR
notes: Rat clone; VH/VL only
B8: ZNRF3-244 (antibody, V domains shown)
VH: EVQLVESGGGLVQPGKSLKLSCSASGFTFSSYGMHWIRQTPGKGLDWVAYISTNSGTVYADAVKGRFTISRDNAKNTLYLQLNSLQSEDTAIYYCARGYNYPGAYWGQGTLVTVSS
VL: B7 VL with G26S, N30S, Y32N, R39K, L45M, F50Y, V58M, S93N, R107K
notes: Rat clone; VH/VL only
B9: ZNRF3-329 (antibody, V domains shown)
VH: B8 VH with Y32H, T40A, T53N, V58I, A60S, D61A, K64R, A74S, Y79F, Q86K
VL: B7 VL with G26S, N30R, R39K, A43V, L45I, F50Y, G57D, V58M, P94V, R107K
notes: Rat clone; VH/VL only
B10: ZNRF3-270 (antibody, V domains shown)
VH: B7 VH with S87P
VL: B7 VL
notes: Rat clone; VH/VL only
B11: ZNRF3-231 (antibody, V domains shown)
VH: B7 VH with T52S, A61D, T83N, R108Q
VL: B7 VL
notes: Rat clone; VH/VL only
B12: ZNRF3-255 (antibody, V domains shown)
VH: EVQLVESGGGLVQPGRSLKLSCAASGFTFSSFTMAWVRQAPKKGLEWVASISSGGGGTYYPDSVKGRFTISRDNAKSTLYLQMDSLRSEDTASYYCATGGFAYWGQGTLVIVSS
VL: DIQMTQSPSSLPASLGDRVTITCRASQDIGSYLRWFQQKPGKSPRLMIYGATSLANGVPSRFSGSRSGSDYSLTINNLESEDMAIYYCLQHNEFPYTFGTGTKLELK
notes: Rat clone; VH/VL only

Assays:
RNF128 (GRAIL) = assay: flow cytometry of live HT29 cells with stably integrated, doxycycline-induced gD-tagged ligase, stained with anti-gD antibody and APC; Parental HT29 APC-A+ 0.27
RNF43 = assay: as above
RNF13 = assay: as above
[1] = molecular target: T1, recombinant human ZNRF3 extracellular …; assay: SPR Biacore 8K; antibody captured on Protein A; ZNRF3 ECD analyte; 25 C
Protocol: Antibodies were screened for binding to recombinant human RNF43 and ZNRF3 ECDs using a Biacore® 8 k instrument (GE Life Sciences). Briefly, antibodies diluted to 1 μg/ml in 1×HBSP buffer (Cytiva, BR100368) were captured on a Sensor Chip Protein A (GE Life Sciences) using a flow rate of 10 μl/minute and a contact time of 60 seconds. Binding of recombinant human RNF43 and ZNRF3 extracellular domain to the captured antibodies was analyzed at 25° C. using a single cycle kinetics method with a flow rate of 30 μl/minute, a contact time of 180 seconds and a dissociation time of 600 seconds. The concentration of recombinant human RNF43 and ZNRF3 extracellular domain in the single cycle kinetics were 0, 0.8, 4, 20, and 100 nM. Between cycles, the chip was regenerated using 10 mM Glycine HCl pH 1.5 injected for 30 seconds at 30 μl/minute. Data were evaluated using Biacore 8K Evaluation software (GE Life Sciences). Kinetic constants were obtained using a 1:1 binding model with the parameter RI set to zero. Cell surface ligase antibodies with sub-nanomolar affinities may provide advantages in certain instances, for example, in the degradation efficiency which is correlated with the durability of the ternary complex as shown in FIG. 5D.

[2] = molecular target: T2, recombinant human RNF43 extracellular domain (human); assay: SPR Biacore 8K; antibody captured on Protein A; RNF43 ECD analyte; 25 C

Sequence of RNF13 (transmembrane E3 ubiquitin ligase with N-terminal gD tag, as listed by the source limits assumed): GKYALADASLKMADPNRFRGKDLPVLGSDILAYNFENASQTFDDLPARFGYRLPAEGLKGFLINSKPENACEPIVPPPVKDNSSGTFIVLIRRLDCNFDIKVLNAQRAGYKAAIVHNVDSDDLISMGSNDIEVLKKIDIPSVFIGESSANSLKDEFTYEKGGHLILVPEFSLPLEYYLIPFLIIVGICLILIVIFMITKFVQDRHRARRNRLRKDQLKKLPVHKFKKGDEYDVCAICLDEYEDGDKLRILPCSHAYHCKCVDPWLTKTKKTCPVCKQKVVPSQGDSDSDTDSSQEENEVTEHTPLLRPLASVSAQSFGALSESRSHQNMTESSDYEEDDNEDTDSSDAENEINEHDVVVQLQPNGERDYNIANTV
Sequence of RNF128 (GRAIL) (transmembrane E3 ubiquitin ligase with N-terminal gD tag, as listed by the source limits assumed): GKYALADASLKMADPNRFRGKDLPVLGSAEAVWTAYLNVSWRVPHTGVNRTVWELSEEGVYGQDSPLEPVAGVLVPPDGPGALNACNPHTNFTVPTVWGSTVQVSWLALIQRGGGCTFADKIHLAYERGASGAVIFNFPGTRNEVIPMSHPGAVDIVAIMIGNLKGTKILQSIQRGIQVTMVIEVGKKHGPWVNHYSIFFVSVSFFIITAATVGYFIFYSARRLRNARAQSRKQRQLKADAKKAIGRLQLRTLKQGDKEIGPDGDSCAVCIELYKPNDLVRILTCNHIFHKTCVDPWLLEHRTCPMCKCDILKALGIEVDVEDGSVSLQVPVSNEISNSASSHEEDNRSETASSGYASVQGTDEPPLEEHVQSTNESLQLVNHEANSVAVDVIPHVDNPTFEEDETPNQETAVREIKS
Sequence of RNF43 (transmembrane E3 ubiquitin ligase with N-terminal gD tag, as listed by the source limits assumed): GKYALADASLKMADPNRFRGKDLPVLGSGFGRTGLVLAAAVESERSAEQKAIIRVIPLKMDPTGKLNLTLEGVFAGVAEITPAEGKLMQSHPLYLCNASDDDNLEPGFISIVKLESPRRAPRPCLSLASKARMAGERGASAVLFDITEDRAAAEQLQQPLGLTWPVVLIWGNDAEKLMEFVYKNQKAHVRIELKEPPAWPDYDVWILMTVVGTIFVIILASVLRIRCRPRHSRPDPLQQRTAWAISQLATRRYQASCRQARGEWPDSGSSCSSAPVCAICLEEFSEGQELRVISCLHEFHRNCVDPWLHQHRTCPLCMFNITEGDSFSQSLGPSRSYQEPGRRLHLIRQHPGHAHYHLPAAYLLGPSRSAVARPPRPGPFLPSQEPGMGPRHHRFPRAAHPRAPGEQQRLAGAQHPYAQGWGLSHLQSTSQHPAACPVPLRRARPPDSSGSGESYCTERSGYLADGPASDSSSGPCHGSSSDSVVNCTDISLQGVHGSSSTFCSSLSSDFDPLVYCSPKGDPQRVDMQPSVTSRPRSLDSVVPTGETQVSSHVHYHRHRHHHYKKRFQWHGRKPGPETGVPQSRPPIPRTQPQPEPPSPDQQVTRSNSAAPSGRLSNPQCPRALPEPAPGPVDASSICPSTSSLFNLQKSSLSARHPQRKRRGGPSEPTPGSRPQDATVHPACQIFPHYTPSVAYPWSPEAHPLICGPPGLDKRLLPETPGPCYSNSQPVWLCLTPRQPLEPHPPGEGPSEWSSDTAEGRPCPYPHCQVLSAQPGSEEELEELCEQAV

| Molecule | Kd [1] [pM] | other results |
| --- | --- | --- |
| anti-gD antibody |  | APC-A+ (share of cells in the positive gate; percentage by paragraph 258) (RNF128 (GRAIL)): 35; APC-A+ (share of cells in the positive gate; percentage by paragraph 258) (RNF43): 63; APC-A+ (share of cells in the positive gate; percentage by paragraph 258) (RNF13): 0.79 |
| B1 | 1600 |  |
| B2 |  | Kd [2]: 34200 pM |
| B3 | 5300 |  |
| B4 |  | binding result [1]: no binding |
| B5 |  | binding result [1]: no binding |
| B6 | 200 |  |
| B7 | 44.3 |  |
| B8 | 6850 |  |
| B9 | 283 |  |
| B10 | 42.4 |  |
| B11 | 78.3 |  |
| B12 | 260 |  |
